Results: paper PMC10519987

What was measured:
[1] = molecular target: carboxy-terminal domain of Saccharomyces cerevisiae RNA polymerase II subunit RPB1 (yCTD) (Saccharomyces cerevisiae); test: dynamic light scattering + microscopy; tag-free CTD alone, no crowding agents; 25 mM HEPES, 1.0 mM TCEP, pH 7.4 (also pH 6.2), 50-1000 mM NaCl, rising temperature; self-coacervation into droplets
[2] = molecular target: carboxy-terminal domain of human RNA polymerase II subunit RPB1 (hCTD) (human) (UniProt P24928); test: as above

minimal concentration of droplet formation [1] | minimal concentration of droplet formation [2] | Substance
100 µM | – | carboxy-terminal domain of Saccharomyces cerevisiae RNA polymerase II subunit RPB1 (yCTD) (domain or fragment)
– | 25 µM | carboxy-terminal domain of human RNA polymerase II subunit RPB1 (hCTD) (from UniProt P24928 1593-1970) (domain or fragment)
